Article PMC3670040, “Structure of Lipid Kinase p110β/p85β Elucidates an Unusual SH2-Domain-Mediated Inhibitory Mechanism” (Molecular Cell, 2011)

System: p110β/p85β-nic
Assay: ATPase activity (ADP formation) in the absence of lipid substrate, Transcreener
Assay type: biochemical, mouse
Conditions: 35 nM complex; Figure 1D
Experimental: Figure 1 Inhibition of p110β by p85-Type Regulatory Subunits and Activation of the Complexes by RTK Phosphopeptide (A) Domain organization of p110β and the regulatory subunits p85α, p85β, and p55γ. The color scheme for the domains is used for all figures, unless otherwise stated. […] The inhibition is released upon addition of the 10 μM PDGFR pY2. […] The y axis is expressed as a change in fluorescence polarization (ΔmP), which is obtained by subtracting the observed polarization for the construct at a given enzyme concentration from the maximum fluorescence polarization for that construct. The plateau in these assays arises due to the competitive nature of the ADP detection system, based on displacement of ADP-Alexa 633 tracer from the ADP^2-antibody by ADP generated during the PI3K assay (see Supplemental Experimental Procedures). All measurements were done in triplicates, and the error bars indicate the standard error of the mean (SEM). […]
The lipid kinase activity was determined using the Transcreener ADP2 FP Assay (BellBrook Labs, Madison, WI) according to manufacturer‟s specifications. This non-radioactive assay measures activity by quantitating the amount of ADP formed. The ADP formed by PI3K competes with fluorescent ADP tracer for binding to an anti-ADP antibody, thereby decreasing fluorescence polarization. […]

B1: p110β-ΔCter/nic: truncation mutant lacking 17 residues from the p110β C terminus; human ΔCter (1-1053) used in cells (protein, UniProt P42338 1-1053, looked up, fragment)
chain: MCFSFIMPPAMADILDIWAVDSQIASDGSIPVDFLLPTGIYIQLEVPREATISYIKQMLWKQVHNYPMFNLLMDIDSYMFACVNQTAVYEELEDETRRLCDVRPFLPVLKLVTRSCDPGEKLDSKIGVLIGKGLHEFDSLKDPEVNEFRRKMRKFSEEKILSLVGLSWMDWLKQTYPPEHEPSIPENLEDKLYGGKLIVAVHFENCQDVFSFQVSPNMNPIKVNELAIQKRLTIHGKEDEVSPYDYVLQVSGRVEYVFGDHPLIQFQYIRNCVMNRALPHFILVECCKIKKMYEQEMIAIEAAINRNSSNLPLPLPPKKTRIISHVWENNNPFQIVLVKGNKLNTEETVKVHVRAGLFHGTELLCKTIVSSEVSGKNDHIWNEPLEFDINICDLPRMARLCFAVYAVLDKVKTKKSTKTINPSKYQTIRKAGKVHYPVAWVNTMVFDFKGQLRTGDIILHSWSSFPDELEEMLNPMGTVQTNPYTENATALHVKFPENKKQPYYYPPFDKIIEKAAEIASSDSANVSSRGGKKFLPVLKEILDRDPLSQLCENEMDLIWTLRQDCREIFPQSLPKLLLSIKWNKLEDVAQLQALLQIWPKLPPREALELLDFNYPDQYVREYAVGCLRQMSDEELSQYLLQLVQVLKYEPFLDCALSRFLLERALGNRRIGQFLFWHLRSEVHIPAVSVQFGVILEAYCRGSVGHMKVLSKQVEALNKLKTLNSLIKLNAVKLNRAKGKEAMHTCLKQSAYREALSDLQSPLNPCVILSELYVEKCKYMDSKMKPLWLVYNNKVFGEDSVGVIFKNGDDLRQDMLTLQMLRLMDLLWKEAGLDLRMLPYGCLATGDRSGLIEVVSTSETIADIQLNSSNVAAAAAFNKDALLNWLKEYNSGDDLDRAIEEFTLSCAGYCVASYVLGIGDRHSDNIMVKKTGQLFHIDFGHILGNFKSKFGIKRERVPFILTYDFIHVIQQGKTGNTEKFGRFRQCCEDAYLILRRHGNLFITLFALMLTAGLPELTSVKDIQYLKDSLALGKSEEEALKQFKQKFDEALRESW
  ATPase activity in the absence of lipid substrate: increased
